The test system of this series is ATP. Nature of the series: switch fluorescence ratio, 500 uM ATP over buffer (Cy3 cluster intensity, sum of 5 cycles each) (fold (ratio)); higher = stronger signal-on switching upon ATP binding; sequences stand for … in TCGTCGGCAGCGTCAGATGTGTATAAGAGACAGTTTTTTTTTTTTTTTTTTTTTTTTT…TC. Conditions: aptamer strand: ATP DNA aptamer (quencher-CACCTGGGGGAGTATTGCGGAGGAAGG + anchor), 100 nM annealed; ATP concentration: 500 uM. The procedure, abridged: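 Between each of five buffer/ATP cycles, the flow-cell was stripped with NaOH and re-annealed. Each cycle imaged Cy3-labelled switching-strand clusters, annealed to 100 nM quencher-labelled ATP aptamer on a modified Illumina MiSeq flow-cell, first in selection buffer and then after 15 min with 500 uM ATP at 22 °C. The fluorescence ratio is summed target-cycle over summed buffer-cycle Cy3 intensity per cluster, averaged per switch-domain sequence, with clusters outside 100-1000 RFU excluded.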

The record followed here is the supplement of paper PMC10126150.

± gives the standard deviation of the averaged measurements.
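Further: ATP exposure 15 min at 22 °C before imaging.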

Take CCACCATATT: the switch fluorescence ratio was 1.07 ± 0.039. In the case of CCACCGGGGC, the switch fluorescence ratio was 2.3 ± 0.12. As to CCACGCCAGA, the switch fluorescence ratio was 1.28 ± 0.052.

As for CCACTAGACC, the switch fluorescence ratio came out at 1.14 ± 0.026.

Take CCACTTTGGG: the switch fluorescence ratio was 1 ± 0.069. The result for CCAGAACTTA reads 1.03 ± 0.026.

As for CCAGAGGGTT, the switch fluorescence ratio amounted to 1.03 ± 0.031. The result for CCAGATATCA reads 0.999 ± 0.054; that for CCAGCAGGTA, 1.13 ± 0.064; that for CCAGCGCACG, 1.541 ± 0.014. The result for CCAGGAAACG reads 0.99 ± 0.072. On to CCAGGCACTG, for which the switch fluorescence ratio was 1.03 ± 0.021.

Consider CCAGGCGGGG, for which the switch fluorescence ratio worked out at 0.9969 ± 0.0046. As for CCAGGCTATG, the switch fluorescence ratio is 1.012 ± 0.0047.

As for CCAGGCTGTT, the switch fluorescence ratio is 1.07 ± 0.023. In the case of CCAGGGAGTG, the switch fluorescence ratio worked out at 1.04 ± 0.015.

For CCAGGGCGAA, the switch fluorescence ratio was determined as 1.064 ± 0.0056. Consider CCAGGGGGCA, for which the switch fluorescence ratio was 1.13 ± 0.14. As to CCAGGTATGA, the switch fluorescence ratio is 1.03 ± 0.035. As for CCAGGTGGCA, the switch fluorescence ratio came to 2.83 ± 0.24. CCAGGTTATC: the switch fluorescence ratio amounted to 1.04 ± 0.032. Regarding CCAGTAGTCC, the switch fluorescence ratio amounted to 1.14 ± 0.0031. Regarding CCAGTAGTTA, the switch fluorescence ratio was determined as 0.999 ± 0.015. Consider CCAGTATATT, for which the switch fluorescence ratio is 1.02 ± 0.043. The result for CCAGTATCTG reads 0.998 ± 0.013; that for CCAGTATGTT, 0.993 ± 0.024; that for CCAGTGAATA, 1.06 ± 0.021. For the sequence CCAGTGTGAG, the switch fluorescence ratio was found to be 1.13 ± 0.039.

On to CCAGTTAGGA, for which the switch fluorescence ratio is 1.01 ± 0.033. The result for CCAGTTGATA reads 0.991 ± 0.032; that for CCAGTTTCTG, 1.02 ± 0.012; that for CCAGTTTTCC, 1.01 ± 0.036. For the sequence CCATATCCAA, the switch fluorescence ratio came to 1.06 ± 0.055.

Regarding CCATATGT, the switch fluorescence ratio turned out to be 0.985 ± 0.028. Turning to CCATCATAGA, the switch fluorescence ratio was found to be 0.9887 ± 0.0061. Consider CCATCGTACC, for which the switch fluorescence ratio is 1.3 ± 0.018. On to CCATCTAGTT, for which the switch fluorescence ratio was determined as 0.9681 ± 0.0047.

Take CCATGACTCT: the switch fluorescence ratio came to 0.983 ± 0.016. For the sequence CCATGGCCAC, the switch fluorescence ratio was 1.0321 ± 0.00059.

As for CCATGGCCTG, the switch fluorescence ratio was 0.97 ± 0.042. On to CCATGGGGGT, for which the switch fluorescence ratio was determined as 1.16 ± 0.14. For CCATGTGGG the value was 1.02 ± 0.013; for CCATGTGTGC, 1.02 ± 0.027; for CCATGTGTGT, 1.0078 ± 7.5e-05. In the case of CCATTAAAAG, the switch fluorescence ratio was determined as 1 ± 0.052. CCATTAGGAG: the switch fluorescence ratio came out at 0.988 ± 0.012. In the case of CCATTAGGGG, the switch fluorescence ratio was found to be 1.01 ± 0.044. For CCATTAGTTG the value was 0.998 ± 0.02; for CCATTATTTT, 1 ± 0.03; for CCATTCTAGA, 1.012 ± 0.0013.

Consider CCATTCTCTC, for which the switch fluorescence ratio amounted to 0.974 ± 0.082. For the sequence CCATTGGGGT, the switch fluorescence ratio is 0.995 ± 0.017. For CCATTGTAAT the value was 1.1 ± 0.024; for CCATTGTGTG, 0.98955 ± 0.00067.

CCATTTGCGC: the switch fluorescence ratio was 1.02 ± 0.034. With CCATTTGTTG, the switch fluorescence ratio is 0.971 ± 0.02. CCATTTTTAC: the switch fluorescence ratio came to 1.1 ± 0.13.

As for CCCAAAATGC, the switch fluorescence ratio was determined as 2.87 ± 1.5. CCCAGGAGGC: the switch fluorescence ratio amounted to 1.08 ± 0.03. Take CCCATCCATC: the switch fluorescence ratio stood at 1.03 ± 0.029.

On to CCCATGTGAG, for which the switch fluorescence ratio was found to be 1.09 ± 0.022. For the sequence CCCATTGTTT, the switch fluorescence ratio was found to be 1.01 ± 0.022.

Turning to CCCATTTAGT, the switch fluorescence ratio came to 1.04 ± 0.023. Take CCCCAAGCAG: the switch fluorescence ratio amounted to 2.497 ± 0.0041. As for CCCCACTGTG, the switch fluorescence ratio is 1.53 ± 0.69. In the case of CCCCAGGCAT, the switch fluorescence ratio worked out at 2.68 ± 0.5.

Regarding CCCCCGGGGT, the switch fluorescence ratio was found to be 1.83 ± 0.38.

As to CCCCGGATGG, the switch fluorescence ratio was 1.26 ± 0.22. With CCCCTGGATA, the switch fluorescence ratio amounted to 1.03 ± 0.043. As to CCCCTGGCAT, the switch fluorescence ratio was 1.42 ± 0.022.

Consider CCCGCGGTGT, for which the switch fluorescence ratio was determined as 2.41 ± 0.19. For the sequence CCCGCTAGTG, the switch fluorescence ratio came out at 1.54 ± 0.12. On to CCCGGAAGGT, for which the switch fluorescence ratio amounted to 1.041 ± 0.0048. Take CCCGGGGGGT: the switch fluorescence ratio came out at 1.56 ± 1.

For CCCGGGGGTT, the switch fluorescence ratio is 1.14 ± 0.13. CCCGGGTAGG: the switch fluorescence ratio was found to be 1.041 ± 0.0026. Turning to CCCGTATACA, the switch fluorescence ratio worked out at 1.206 ± 0.0072. The result for CCCTATCAAT reads 1.1 ± 0.038.
